Experiments:
Format in all cases: biochemical
[1] = Specific activity of purified endoglucanases; settings: purified to homogeneity; pH 5.6 and 50° C.; CMC as substrate
Experimental: FIG. 2 represents Table 2 which contains the data obtained by purification of endoglucanases of seven clones (pBKRR.1, 9, 11, 13, 14, 16 and 22) with respect to the specific activity. […] They were purified to homogeneity and their specific activity was estimated at pH 5.6 and 50° C., using CMC as substrate.
The endoglucanases were recovered from 1-liter shaked flask fermentations, in Luria-Bertany broth plus 50 μg of Kanamycin per ml. One gram of fermentation broth was mixed with 10 ml of standard buffer in a 50-ml Falcon tube. The solution was vortexed and then incubated with DNase I grade II, for 30-45 min, and then sonicated for 4 min total time. A sample of the soluble fraction was separated from insoluble debris by centrifugation (10,000×g, 30 min, 4° C.) and proteins were precipitated by addition of 80% chilled acetone (−20° C.). Proteins were resuspended in standard buffer and stored at −20° C. at a concentration of 5 mg/ml until use. The amount of protein expression was examined using SDS-PAGE with 10-12% acrylamide. […] The gel region containing the active cellulase, detected in a parallel track by activity staining (using Ostazin brillian-blue carboxymethyl cellulose) was excised, suspended in two volumes of standard fuffer and homogenized in a glass tissue homogenizer. […]
The standard cellulase activity was determined in a continuous spectrophotometric assay by measuring the release of reducing sugars from the 4% (wt/vol carboxymethyl cellulose (CMC) in 0.5-ml reaction mixtures containing 50 mM sodium acetate buffer, pH 5.6, at 40° C., using the dinitrosalycilic acid (DNS) method (Bernfeld, P. (1955) Amilases and b. In: Colowick S P, Kaplan N O (eds). Methods in Enzymology, Academic Press, New York pp. 133-155). The reaction was performed in 0.5 ml scale containing 20 mg substrate and 5 mg lyophilised cells or 0.1 mg purified enzyme. Reactions were allow to proceed for a time period of 5-30 min after which the samples were centrifuge (10,000×g, 3 min). […] Finally, each well was diluted with 150 μl water and the absorbance at 550 nm was measured. […]

[2] = pH-dependent activity and pH stability; settings: cell lysates; CMC; pH 3.5 to 10.5 at 40° C.
Experimental: (§1) FIG. 3 represents Table 3 giving an overview over the biochemical properties of the cellulases according to the invention. Reaction was performed at the optimum pH and temperature for each done using CMC as substrate. […] The values for clones pBKRR.1, 9, 11, 13, 14, 16 and 22 are depicted. For each clone the following data are given: • maximum pH at which the remaining activity after 24 h incubation at the indicate pH is >90% (column “Stable at pH”). […] Activity was measured after 2 h incubation and compared with a control reaction in buffer lacking dimethylsulfoxide, • detergent resistance given by the remaining activity in the corresponding buffer (optimum pH) containing the indicate detergent at a concentration for 0 to 3%. […]
(§2) FIG. 4 a-c represent the results of the determination of pH and temperature optima showing graphically views of the pH-dependence activity and temperature-dependence activity of the polypeptides according to the invention. The pH optima of rumial endoglucanases were measured under conditions described in Example 5: 4% CMC, 0.5 mL of 50 mM buffer at the corresponding pH and 0.1 mg E. coli cell lysates, for 5-30 min, at 40° C. Effect of temperature on endoglucanase activity was measured in 50 mM sodium acetate buffer pH 5.6. […]

[3] = Cation dependence; settings: 10 to 100 mM
Experimental: FIG. 3 represents Table 3 giving an overview over the biochemical properties of the cellulases according to the invention. Reaction was performed at the optimum pH and temperature for each done using CMC as substrate. […] The values for clones pBKRR.1, 9, 11, 13, 14, 16 and 22 are depicted. For each clone the following data are given: • maximum pH at which the remaining activity after 24 h incubation at the indicate pH is >90% (column “Stable at pH”). […] Activity was measured after 2 h incubation and compared with a control reaction in buffer lacking dimethylsulfoxide, • detergent resistance given by the remaining activity in the corresponding buffer (optimum pH) containing the indicate detergent at a concentration for 0 to 3%. […] The effect of mono- (Na^+, K^+, NH4^+, and divalent cations (Ca^2+, Mn^2+, Mg^2+, Sr^2+, Fe^2+, Cu^2+, Ni^2+, Co^2+, Zn^2+) was first examined by treating the enzyme with chelating agents (EDTA and EGTA) to remove any endogenous divalent cations, followed by adding cations to the reaction mixture.
[…] Inhibitors such as N-ethylmalemide, iodoacetate and p-chloromercuribenzoate at concentration from 1-5 mM were incubated in the presence of the enzyme for 30 min (30° C.) prior to the addition of the substrate (CMC). The effects of detergents on the endoglucanase activity was analysed by adding of 1-3% (wt/vol) detergent to the enzyme solution. In all cases, the enzyme activity was assayed in triplicate using the standard cellulose assay described above and the residual activity was expressed as percent of the control value (without addition of chemicals).

[4] = TLC analysis of hydrolysis products; settings: pH 5.6, 50° C.
From the text: FIG. 7 depicts the result of thin layer chromatography TLC analysis of products of CMC hydrolyzed by endoglucanases derived from a rumial genomic DNA library. The methods used for cellulase and substrate preparation, hydrolysis, TLC, and visualization are described in Example 5. The hydrolysis products glucose, cellobiose, cellotriose are shown an the right side. […] Different pattern was found when using short-chain beta-1,4-glucans.
The products formed by hydrolysis of cellulose-based substrates (cellobiose, cellotetraose, cellopentaose, cellulose and carboxymethyl cellulose) were analysed by thin-layer chromatography (TLC). Solutions containing 20 μg of E. coli cell lysate proteins and 0.2% (wt/vol) substrate in 50 mM acetate buffer (pH 5.6) were incubated at 50° C. until maximum conversion was achieved. The reactions were terminated by heating the preparation for 5 min at 95° C. and hydrolysis products were separated by TLC on silica gel plates (Merck, Darmstadt, Germany) by using a mixture chloroform, glacial acetic acid, and water (6:14:1) as the solvent. […] Sugars were visualized by heating 105° C. for 15 min the plates which were previously sprayed with a reagent containing amine (2 ml), diphenylamine (2 g), acetone (100 ml) and 85% H3PO4 (15 ml).

[5] = Thermal activity and thermostability; settings: at the pH optima; CMC
Experimental: as §1, §2

B1: pBKRR.11: rumen endo-beta-1,4-glucanase, sequences FIG. 14/22 (protein)
chain: MRILKLFFIALITAAPIFSYAQTVDDMKSVFVDAHTWTASIKMGWNLGNALECQTGWNDKAFCWNPANNFNAETSWGNPKTTKEMLQAVREAGFDAVRIPVNWGAHISDESTCTIDAAWMNRVQEVVDWALQLGFKVLLNTHHEYWLEWHPTYDREQANNNKLAKIWMQVANRFKDYGPDLAFAGINEVHLDGKWNVPTEENTAVTNSYNQTFVNTVRATGGNNLYRNLVVQCYSCNPDYGLTGFVVPADKVENRLSIEYHYYRPWDYAGDAPKYYYWGEAYKQYGEVSTADNEAKVNADFARYKAAWYDKGLGVIMGEWGASQHYQVESKAKQLENLYYHFKTVREAAQKNNIATFVWDNNACGNGGDKFGIFDRNDNMSVAFPEALNAIQEASGQTVVDYSRQALQPSVVYQGDELMNWGEGKQLIIAGSKFAYFTAESKLMVTLDAEPGADYDMLQFAYGDWKSKPLMIISGRSYKGQVEPSKINGSRNTYTLFIGFKESSLNQLKDKGITLQGHGLRLRNVVVMPEGLVLGL
modifications: Description of sequence sequence derived from genomic DNA library from rumen ecosystem, particularly amino acid sequence of clones pBKRR 11, 10 and 12; RR10=RR11=RR12; (see Figure 22)
With B1 the specific activity [1] was 6.42 µmol/min/mg, the “pH of highest (maximal) activity” value [2] was 4.5 pH and the “stimulatory effect of Mg^2+” value ([3]; chloride salt) was 127%. For the same molecule, the “influence of mono- and divalent cations on activity” value ([3]; chloride salts, after EDTA and EGTA treatment) was “not influenced”, the “main hydrolysis products of CMC” value [4] was “cellobiose and cellotriose” and the “temperature of improved activity and thermostability” value [5] was 50 °C.

From patent publication US20080261267A1, “Cellulases from Rumen” (priority 2004, published 2008)
